Data set [1] is described as follows: Kinetic measurements (KM, Vmax) of Endo-S/Endo-S2 mutants for SCT-Oxa. In kind it is biochemical. The conditions noted are these: for Km / kcat: Endo-S2 mutants, donor substrate SCT-Oxa, PBS pH 7.4, 30° C. As for the experimental part: Using a sialylated glycan oxazoline (SCT-Oxa) as the donor and the deglycosylated rituximab as the acceptor substrate, we measured the kinetic parameters of the enzyme catalyzed glycosylation were measured. A mass spectrometry-based approach with an internal standard was used to estimate the product formation.^31-33.
(§1) Peptide-N-Glycosidase F (PNGase F) treated rituximab was used as the internal standard due to its similarities to the deglycosylated and transferred product in terms of their molecular structures and ionization efficiencies. After PNGase F treatment, a mutation will be introduced into the amino acid sequence of rituximab so the product antibody will not interfere with the reaction via re-glycosylation^35. A standard product S2G2F-rituximab was synthesized following the previously reported procedure^29. […] Serial dilutions containing a gradient of S2G2F-rituximab (0, 0.25, 0.5, 0.75, 1.0, 1.25 and 1.5 μM) were mixed with a stock solution containing 0.67 μM internal standard. These mixed sample solutions were quantified by selected ion monitoring (SIM) to calculate the single-point normalization factor^31. The factor could then be used to calculate the relative amount of the final product N-glycoform for each reaction in the following experiments.
Measurements of KM and Vmax for SCT-oxa. Serial dilutions with a total volume of 10 μL were prepared with a gradient of SCT-oxa concentrations and a constant deglycosylated antibody concentration mixed in PBS, pH 7.4. Each reaction was initiated by adding 1μμL, of Endo-S/S2 mutants with a concentration of 0.1 mg/M1 and the reaction was conducted at 30° C. The concentrations of SCT-oxa were within a range from 6.25 μM to 400 μM. For each reaction, three aliquots were taken at t=1, 2 and 3 min and immediately quenched in 100 μL 0.1% formic acid. The quenched reaction samples were then characterized by ESI-MS, and the concentration of product in each mixture was calculated using the normalization factor, as shown above. […] The KM and Vmax were measured by fitting the initial velocity against the SCT-oxa concentration using the GraphPad Prism7 program. The experiments were conducts in triplicate to determine the error in these measurements.

Another data set relates to deglycosylated rituximab. The experiment in a line: Kinetic measurements (KM, Vmax) of Endo-S/Endo-S2 mutants for deglycosylated rituximab. The class given is biochemical.
Source text: as §1
Measurements of KM and Vmax for SCT-oxa. Serial dilutions with a total volume of 10 μL were prepared with a gradient of SCT-oxa concentrations and a constant deglycosylated antibody concentration mixed in PBS, pH 7.4. Each reaction was initiated by adding 1μμL, of Endo-S/S2 mutants with a concentration of 0.1 mg/M1 and the reaction was conducted at 30° C. The concentrations of SCT-oxa were within a range from 6.25 μM to 400 μM. For each reaction, three aliquots were taken at t=1, 2 and 3 min and immediately quenched in 100 μL 0.1% formic acid. The quenched reaction samples were then characterized by ESI-MS, and the concentration of product in each mixture was calculated using the normalization factor, as shown above. A linear progression curve was confirmed for each reaction by sampling at multiple early time points and plotting them in the same graph, which emphasized that the V0 measured indeed represents the initial rate of each reaction. The KM and Vmax were measured by fitting the initial velocity against the SCT-oxa concentration using the GraphPad Prism7 program. The experiments were conducts in triplicate to determine the error in these measurements.
The KM and Vmax values of both Endo-S and Endo-S2 mutants for the deglycosylated antibody substrate were measured in a similar fashion as to those for SCT-Oxa. In the serial reactions, the concentrations of antibody range from 0.313 μM to 20 μM, whereas the SCT-Oxa concentration was fixed at 400 μM. A similar control reaction was also performed for each concentration to monitor the non-enzymatic side reactions.

[2] abbreviates: Endo-S2, glycan oxazoline substrate.
Setting [3] is: Endo-S2 mutants, acceptor substrate deglycosylated rituximab, SCT-Oxa fixed at 400 μM.

The text below walks through data of patent US10836815B2, “Generation and comparative kinetic analysis of new glycosynthase mutants from Streptococcus pyogenes endoglycosidases for antibody glycoengineering” (UNIVERSITY OF MARYLAND, COLLEGE PARK, priority 2017, dated 2020).

B1: Endo-S2 D184M (protein)
chain: EEKTVQTGKTDQQVGAKLVQEIREGKRGPLYAGYFRTWHDRASTGIDGKQQHPENTMAEVPKEVDILFVFHDHTASDSPFWSELKDSYVHKLHQQGTALVQTIGVNELNGRTGLSKDYPDTPEGNKALAAAIVKAFVTDRGVDGLDIMIEHEFTNKRTPEEDARALNVFKEIAQLIGKNGSDKSKLLIMDTTLSVENNPIFKGIAEDLDYLLRQYYGSQGGEAEVDTINSDWNQYQNYIDASQFMIGFSFFEESASKGNLWFDVNEYDPNNPEKGKDIEGTRAKKYAEWQPSTGGLKAGIFSYAIDRDGVAHVPSTYKNRTSTNLQRHEVDNISHTDYTVSRKLKTLMTEDKRYDVIDQKDIPDPALREQIIQQVGQYKGDLERYNKTLVLTGDKIQNLKGLEKLSKLQKLELRQLSNVKEITPELLPESMKKDAELVMVGMTGLEKLNLSGLNRQTLDGIDVNSITHLTSFDISHNSLDLSEKSEDRKLLMTLMEQVSNHQKITVKNTAFENQKPKGYYPQTYDTKEGHYDVDNAEHDILTDFVFGTVTKRNTFIGDEEAFAIYKEGAVDGRQYVSKDYTYEAFRKDYKGYKVHLTASNLGETVTSKVTATTDETYLVDVSDGEKVVHHMKLNIGSGAIMMENLAKGAKVIGTSGDFEQAKKIFDGEKSDRFFTWGQTNWIAFDLGEINLAKEWRLFNAETNTEIKTDSSLNVAKGRLQILKDTTIDLEKMDIKNRKEYLSNDENWTDVAQMDDAKAIFNSKLSNVLSRYWRFCVDGGASSYYPQYTELQILGQRLSNDVANTLKD
On to B1, for which, in data set [1] (setting [2]), the “decrease in substrate affinity (KM) versus D184A” value is recorded as “less than 2 fold” and the “increase in catalytic turnover numbers (kcat) over D184A” value was “more than 15 fold”. For the same molecule, the “increase in kcat/KM over D184A” value in data set [1] (Endo-S2, sugar oxazoline substrate) was “more than 10 fold”. In data set [1], the Km amounted to 229 ± 34.8 µM and the kcat was 2.7968 ± 0.3417 s⁻¹. Also, the “catalytic turnover number compared with Endo-S D233M (in words)” value in data set [1] (for both the sugar oxazoline and the antibody substrates) is given as “significantly higher catalytic turnover number than Endo-S D233M”. In addition, in the data set with deglycosylated rituximab (Asp-to-Met versus Asp-to-Ala mutant), the “substrate affinity for the deglycosylated antibody (in words)” value is “significantly higher substrate affinity for the antibody than the Endo-S2 D184A mutant”. For the same molecule, in the data set with deglycosylated rituximab (setting [3]), the Michaelis-Menten constant (Km) stood at 32.6 ± 6.71 µM and the kcat is 0.4973 ± 0.155 s⁻¹.

B2: Endo-S2 D184A (protein)
chain: EEKTVQTGKTDQQVGAKLVQEIREGKRGPLYAGYFRTWHDRASTGIDGKQQHPENTMAEVPKEVDILFVFHDHTASDSPFWSELKDSYVHKLHQQGTALVQTIGVNELNGRTGLSKDYPDTPEGNKALAAAIVKAFVTDRGVDGLDIAIEHEFTNKRTPEEDARALNVFKEIAQLIGKNGSDKSKLLIMDTTLSVENNPIFKGIAEDLDYLLRQYYGSQGGEAEVDTINSDWNQYQNYIDASQFMIGFSFFEESASKGNLWFDVNEYDPNNPEKGKDIEGTRAKKYAEWQPSTGGLKAGIFSYAIDRDGVAHVPSTYKNRTSTNLQRHEVDNISHTDYTVSRKLKTLMTEDKRYDVIDQKDIPDPALREQIIQQVGQYKGDLERYNKTLVLTGDKIQNLKGLEKLSKLQKLELRQLSNVKEITPELLPESMKKDAELVMVGMTGLEKLNLSGLNRQTLDGIDVNSITHLTSFDISHNSLDLSEKSEDRKLLMTLMEQVSNHQKITVKNTAFENQKPKGYYPQTYDTKEGHYDVDNAEHDILTDFVFGTVTKRNTFIGDEEAFAIYKEGAVDGRQYVSKDYTYEAFRKDYKGYKVHLTASNLGETVTSKVTATTDETYLVDVSDGEKVVHHMKLNIGSGAIMMENLAKGAKVIGTSGDFEQAKKIFDGEKSDRFFTWGQTNWIAFDLGEINLAKEWRLFNAETNTEIKTDSSLNVAKGRLQILKDTTIDLEKMDIKNRKEYLSNDENWTDVAQMDDAKAIFNSKLSNVLSRYWRFCVDGGASSYYPQYTELQILGQRLSNDVANTLKD
For the molecule B2, in data set [1], the Km stood at 121 ± 17.1 µM and the kcat amounted to 0.17 ± 0.0395 s⁻¹. Further, the Km with deglycosylated rituximab (setting [3]) is over 680 µM. In the data set on deglycosylated rituximab (deglycosylated rituximab), the “KM value relative to Endo-S2 D184M” value is on record as “more than 20 times”.
